Measured values as given in article PMC4222368, “A human mitochondrial poly(A) polymerase mutation reveals the complexities of post-transcriptional mitochondrial gene expression” (Human Molecular Genetics, 2014).
Substitutions are numbered along the chain they refer to. Names may count otherwise.

B1: human mitochondrial poly(A) polymerase (mtPAP), wild type, residues 44-538 (enzyme, UniProt Q9NVV4 44-538, looked up)
chain: EQPSGSVETGFEDKIPKRRFSEMQNERREQAQRTVLIHCPEKISENKFLKYLSQFGPINNHFFYESFGLYAVVEFCQKESIGSLQNGTHTPSTAMETAIPFRSRFFNLKLKNQTSERSRVRSSNQLPRSNKQLFELLCYAESIDDQLNTLLKEFQLTEENTKLRYLTCSLIEDMAAAYFPDCIVRPFGSSVNTFGKLGCDLDMFLDLDETRNLSAHKISGNFLMEFQVKNVPSERIATQKILSVLGECLDHFGPGCVGVQKILNARCPLVRFSHQASGFQCDLTTNNRIALTSSELLYIYGALDSRVRALVFSVRCWARAHSLTSSIPGAWITNFSLTMMVIFFLQRRSPPILPTLDSLKTLADAEDKCVIEGNNCTFVRDLSRIKPSQNTETLELLLKEFFEYFGNFAFDKNSINIRQGREQNKPDSSPLYIQNPFETSLNISKNVSQSQLQKFVDLARESAWILQQEDTDRPSISSNRPWGLVSLLLPSAPNR
notes: human mitochondrial poly(A) polymerase (MTPAP, formerly PAPD1), residues 44-538, in pET28a; also called wild-type mtPAP; WT
B2: human mitochondrial poly(A) polymerase (mtPAP), p.N478D mutant, residues 44-538 (enzyme, UniProt Q9NVV4 44-538, looked up)
chain: B1 chain with N435D
notes: human mitochondrial poly(A) polymerase (MTPAP), residues 44-538, in pET28a, with the patient mutation p.N478D (c.1432A>G) made with the QuikChange kit; The mutation occurs in patients (spastic ataxia with optic atrophy); also called p.N478D mtPAP; mutant mtPAP

Biological target: the molecule itself
Test: SEC; gel filtration analysis of wild-type and mutant mtPAP isolated to electrophoretic purity

Row | Protein | stoichiometry N
1 | B1 | 2
2 | B2 | 2
